This passage reports Kd results from article PMC5861439 (Nucleic Acids Research, 2017).

In this experiment the target is Saccharomyces cerevisiae Asf1 (2–169) (Saccharomyces cerevisiae, UniProt P32447 2-169). The experiment in a line: ITC.
Chain of Saccharomyces cerevisiae Asf1 (2–169) (P32447 2-169): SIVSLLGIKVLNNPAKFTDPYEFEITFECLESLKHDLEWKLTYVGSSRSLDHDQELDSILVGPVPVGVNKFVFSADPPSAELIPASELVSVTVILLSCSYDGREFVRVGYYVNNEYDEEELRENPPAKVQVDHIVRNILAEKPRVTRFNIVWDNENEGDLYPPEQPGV

LAITMLKPRKKAKAL [Rtt109^419–433 peptide]: the Kd (in general, the free concentration of one partner at which half of the binding sites on the other are occupied at equilibrium, for simple one-to-one binding) stood at 7.78 ± 1.23 µM.
